Measurements published in article PMC3861474 (PLoS ONE, 2013).

Experiments:
[1] = molecular target: N-acetyl-L-glutamate kinase (NAGK), His-tagged wild type (Synechococcus elongatus) (UniProt Q6V1L5)
[2] = molecular target: NAGK‑FL25‑C (NAGK fused by a flexible 25-residue linker to Cerulean) (Synechococcus elongatus) (UniProt Q6V1L5)
[3] = molecular target: N-acetyl-L-glutamate kinase (NAGK), His-tagged wild type (Synechococcus elongatus) (UniProt Q6V1L5); remark: listed apart in the source
[4] = molecular target: NAGK‑FL25‑C (NAGK fused by a flexible 25-residue linker to Cerulean) (Synechococcus elongatus) (UniProt Q6V1L5); assay: FRET or BRET; association kinetics: FRET ratio (525 nm / 475 nm emission) every 8 s, excitation 433 nm; NAGK-FL25-C preincubated at 37 °C, then PII-Venus variant added; 100 nM proteins; 0.1 mM ATP; ratio not background-subtracted (0.54 is the zero baseline)
[5] = molecular target: NAGK‑FL25‑C (NAGK fused by a flexible 25-residue linker to Cerulean) (Synechococcus elongatus) (UniProt Q6V1L5); remark: listed apart in the source
[6] = molecular target: NAGK‑FL25‑C (NAGK fused by a flexible 25-residue linker to Cerulean) (Synechococcus elongatus) (UniProt Q6V1L5); assay: FRET or BRET; FRET ratio of NAGK-FL25-C + PII-ST-V after addition of 2-OG (0.8 and 1.6 mM, the highest concentrations); 0.1 mM ATP; background subtracted and normalised
[7] = molecular target: NAGK‑FL25‑C (NAGK fused by a flexible 25-residue linker to Cerulean) (Synechococcus elongatus) (UniProt Q6V1L5); assay: FRET or BRET; FRET ratio of NAGK-FL25-C + PII-ST-V with ADP 0.25 to 8 mM and 0.1 mM ATP (ADP/ATP ratio about 80 for the maximal drop); background subtracted and normalised
NAGK‑FL25‑C + PII-ST‑V = molecular target: T1, NAGK‑FL25‑C + PII-ST‑V (Synechococcus elongatus, UniProt P0A3F4); assay: FRET dissociation of PII - NAGK complex, […] nm ratio; format: binding; details: 0.1 mM ATP, 20 mM MgCl2, pH 7.5, 100 nM proteins, 30 min; competitive with ATP; a ratio, not a concentration
T1 construct: gene glnB; same FRET complex as P6 (Cerulean on NAGK C-terminus, Strep-tag and Venus on PII C-terminus), E. coli; compound site on PII; with Acetylglutamate kinase
T1 sequence (P0A3F4 whole entry): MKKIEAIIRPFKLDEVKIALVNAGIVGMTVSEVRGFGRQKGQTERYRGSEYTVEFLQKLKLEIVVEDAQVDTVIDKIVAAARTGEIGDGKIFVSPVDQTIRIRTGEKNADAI
T1 sequence (Q6V1L5 whole entry partner): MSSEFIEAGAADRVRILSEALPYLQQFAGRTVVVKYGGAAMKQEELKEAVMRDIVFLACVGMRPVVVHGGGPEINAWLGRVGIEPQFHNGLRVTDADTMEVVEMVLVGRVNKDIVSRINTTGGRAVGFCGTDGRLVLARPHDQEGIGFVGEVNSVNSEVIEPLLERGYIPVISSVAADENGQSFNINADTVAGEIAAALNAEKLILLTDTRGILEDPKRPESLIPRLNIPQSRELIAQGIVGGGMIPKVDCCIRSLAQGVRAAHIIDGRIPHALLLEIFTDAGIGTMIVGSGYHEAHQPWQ

N-acetyl-L-glutamate kinase (NAGK), His-tagged wild type (Synechococcus elongatus), sequence (Q6V1L5 whole entry, the tested form may be a part): as the sequence (Q6V1L5 whole entry partner) above
NAGK‑FL25‑C (NAGK fused by a flexible 25-residue linker to Cerulean) (Synechococcus elongatus), sequence (Q6V1L5 whole entry, the tested form may be a part): as the sequence (Q6V1L5 whole entry partner) above

Compound | relief of NAGK from arginine inhibition by PII: fold increase of the IC50 of arginine in the enzyme assay [1] [times] | Kcat of NAGK activity in the presence of PII (NAGK-FL25-C alone 41.36 s^-1) [2] [s⁻¹] | Kcat/Km of NAGK activity in the presence of PII (NAGK-FL25-C alone 1.4E+04) [2] [M⁻¹ s⁻¹] | Kcat of NAGK activity in the presence of PII (coupled NADH oxidation assay; NAGK-wt alone 38.8 s^-1) [3] [s⁻¹] | Kcat/Km of NAGK activity in the presence of PII (NAGK-wt alone 1.2E+04) [3] [M⁻¹ s⁻¹] | Kcat of NAGK activity in the presence of PII (NAGK-wt alone 38.8 s^-1) [3] [s⁻¹] | maximum FRET ratio (525 nm / 475 nm; zero baseline 0.54) [4] | partial relief of NAGK from arginine inhibition by PII: fold increase of the IC50 of arginine in the enzyme assay [5] [times] | steady state FRET level above background with 0.8 and 1.6 mM 2-OG [6] [%] | FRET level above baseline at the maximal drop (ADP/ATP ratio of about 80) [7] [%] | IC50 (ADP/ATP ratio) (NAGK‑FL25‑C + PII-ST‑V)
PII signal transduction protein, wild type (from UniProt P0A3F4 1-112) (natural protein) | 25 | 128 | 240000 | 119 | 180000 |  |  |  |  |  | 
PII-S49G‑ST‑V (PII S49G, Strep-tag as linker, Venus) (from UniProt P0A3F4 1-112) (natural protein) |  | 99.6 | 250000 |  | 190000 | 96.8 | 0.8 | 8.5 |  |  | 
PII-E85A‑ST‑V (PII E85A, Strep-tag as linker, Venus) (from UniProt P0A3F4 1-112) (natural protein) |  |  |  |  |  |  | 0.6 |  |  |  | 

Continued, values first:

relief of NAGK from arginine inhibition by PII: fold increase of the IC50 of arginine in the enzyme assay [1] [times] | Kcat of NAGK activity in the presence of PII (NAGK-FL25-C alone 41.36 s^-1) [2] [s⁻¹] | Kcat/Km of NAGK activity in the presence of PII (NAGK-FL25-C alone 1.4E+04) [2] [M⁻¹ s⁻¹] | Kcat of NAGK activity in the presence of PII (coupled NADH oxidation assay; NAGK-wt alone 38.8 s^-1) [3] [s⁻¹] | Kcat/Km of NAGK activity in the presence of PII (NAGK-wt alone 1.2E+04) [3] [M⁻¹ s⁻¹] | Kcat of NAGK activity in the presence of PII (NAGK-wt alone 38.8 s^-1) [3] [s⁻¹] | maximum FRET ratio (525 nm / 475 nm; zero baseline 0.54) [4] | partial relief of NAGK from arginine inhibition by PII: fold increase of the IC50 of arginine in the enzyme assay [5] [times] | steady state FRET level above background with 0.8 and 1.6 mM 2-OG [6] [%] | FRET level above baseline at the maximal drop (ADP/ATP ratio of about 80) [7] [%] | IC50 (ADP/ATP ratio) (NAGK‑FL25‑C + PII-ST‑V) | Compound
 | 134 | 210000 |  | 180000 | 123 | 1.35 |  | 10 | 10 |  | PII-ST‑V (PII, Strep-tag as linker, Venus) (from UniProt P0A3F4 1-112) (natural protein)
 |  |  |  |  |  |  |  |  |  | ~ 10 ADP/ATP ratio | Nc1ncnc2c1ncn2[C@@H]1O[C@H](COP(=O)(O)OP(=O)(O)O)[C@@H](O)[C@H]1O [ADP]
